These substances were tested against PDGF-BB (platelet-derived growth factor BB) (Homo sapiens) (UniProt P01127) (assay: filter). Conditions: Bn-dU.
Sequence of PDGF-BB (platelet-derived growth factor BB) (Homo sapiens) (P01127 82-190): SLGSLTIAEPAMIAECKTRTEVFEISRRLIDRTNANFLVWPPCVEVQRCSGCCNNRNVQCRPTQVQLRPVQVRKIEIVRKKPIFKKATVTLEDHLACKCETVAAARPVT
Substance “CGTTACACGCGTTTATAGCGTCAACCCGAGTGAACA [4149-8_17]” has a Kd of over 10000 pM.
With CTTACGACTACGTTACACGCGTTTA [4149-8_35] the Kd was over 10000 pM.
CTTACGACTACGTTACACGCGTTTAT [4149-8_34] gave a Kd of over 10000 pM.

Same assay, conditions: Bn-dU; C3 at 2
“TACGACTACGTTACACGCGTTTATAGCG [4149-8_65]” gave a Kd of over 10000 pM.

Same assay, conditions: C3 spacer at 1; NapdU at 9,11,13,19,21; C3 spacer walk
In the case of GACAGCATGTATGCACATCT [5169-4_59], the Kd is reported as 53 pM.

Same assay, conditions: C3 spacer at 8; NapdU at 9,11,13,19,21; C3 spacer walk
In the case of CGACAGCTGTATGCACATCT [5169-4_66], the Kd is reported as 8500 pM.

Same assay, conditions: C3 spacer at 18; NapdU at 9,11,13,19,21; C3 spacer walk
CGACAGCATGTATGCACTCT [5169-4_76] was tested, and the Kd was 1300 pM.

Same assay, conditions: NapdU at P
Work on CGACAGCATGTATGCACATCTAG [5169-4_24] yielded a Kd of 21 pM.
In the case of CGACAGCATGTATGCACATCTAGA [5169-4_23], the Kd is reported as 20 pM.
In the case of CGACAGCATGTATGCACATCTAGAG [5169-4_22], the Kd is reported as 15 pM.
CGACAGCATGTATGCACATCTAGAGG [5169-4_21] gave a Kd of 21 pM.
Substance CGACAGCATGTATGCACATCTAGAGGC [5169-4_20] has a Kd of 14 pM.
“CGACAGCATGTATGCACATCTAGAGGCTA [5169-4_18]” gave a Kd of 26 pM.
For “CGACAGCATGTATGCACATCTAGAGGCTACCCAGT [5169-4_17]”, the Kd was 20 pM.
For “CGACAGCATGTATGCACATCTAGAGGCTACCCAGTG [5169-4_16]”, the Kd was 16 pM.
For “CGACAGCATGTATGCACATCTAGAGGCTACCCAGTGA [5169-4_15]”, the Kd was 19 pM.
Work on “CGACAGCATGTATGCACATCTAGAGGCTACCCAGTGAA [5169-4_12]” yielded a Kd of 64 pM.
In the case of “CGACAGCATGTATGCACATCTAGAGGCTACCCAGTGAATGAGGA [5169-4_5]”, the Kd is reported as 31 pM.
Substance “CTGCCTCGACAGCATGTATGCACATCTAGAGGCTA [5169-4_11]” has a Kd of 600 pM.
“CTGCCTCGACAGCATGTATGCACATCTAGAGGCTACCC [5169-4_10]” gave a Kd of 630 pM.
“CTGCCTCGACAGCATGTATGCACATCTAGAGGCTACCCAGTGAA [5169-4_8]” showed a Kd of 36 pM.
“CTGCCTCGACAGCATGTATGCACATCTAGAGGCTACCCAGTGAATGA [5169-4_7]” showed a Kd of 14 pM.
GACAGCATGTATGCACATCTA [5169-4_29] showed a Kd of 62 pM.
GACAGCATGTATGCACATCTAG [5169-4_28] gave a Kd of 48 pM.
GACAGCATGTATGCACATCTAGA [5169-4_27] gave a Kd of 62 pM.
With GACAGCATGTATGCACATCTAGAG [5169-4_32] the Kd was 53 pM.
For “GACAGCATGTATGCACATCTAGAGGCTACCCAGTGAA [5169-4_13]”, the Kd was 27 pM.

Same assay, conditions: NapdU at P; C3 spacer at 5
For CGACGCATGTATGCACATCT [5169-4_63], the Kd was 29000 pM.

Same assay, conditions: NapdU at P; C3 spacer at 16
CGACAGCATGTATGCCATCT [5169-4_74] gave a Kd of 370 pM.

Same assay, conditions: NapdU at P; C3 spacer at 20
Substance CGACAGCATGTATGCACATT [5169-4_78] has a Kd of 280 pM.

Same assay, conditions: all P are NapdU, rest DNA; SB18T, 37 C
“CGACAGCATGTATGCACATCTAGAGGCT [5169-4_19]” showed a Kd of 12 pM.
For “CTGCCTCGACAGCATGTATGCACATCTAGAGGCTACCCAGT [5169-4_9]”, the Kd was 720 pM.
With “CTGCCTCGACAGCATGTATGCACATCTAGAGGCTACCCAGTGAATGAGGA [5169-4_3]” the Kd was 29 pM.
For GACAGCATGTATGCACATCT [5169-4_30], the Kd was 62 pM.

Same assay, conditions: all Z are BndU, rest DNA; SB18T, 37 C
Work on “CGACTACGTTACACGCGTTTATAGCGTCAACCCGAGTGAACA [4149-8_14]” yielded a Kd of 13000 pM.
“CTCTTACGACTACGTTACACGCGTTTATAGCGTC [4149-8_27]” showed a Kd of 90 pM.
“CTCTTACGACTACGTTACACGCGTTTATAGCGTCAACCCGAGTGAACA [4149-8_11]” showed a Kd of 30 pM.
In the case of “CTTACGACTACGTTACACGCGTTTATAG [4149-8_32]”, the Kd is reported as 6000 pM.
For “CTTACGACTACGTTACACGCGTTTATAGC [4149-8_31]”, the Kd was 300 pM.
With “CTTACGACTACGTTACACGCGTTTATAGCG [4149-8_30]” the Kd was 70 pM.
Work on “CTTACGACTACGTTACACGCGTTTATAGCGT [4149-8_29]” yielded a Kd of 70 pM.
Work on “CTTACGACTACGTTACACGCGTTTATAGCGTCAACCCGA [4149-8_26]” yielded a Kd of 80 pM.
Substance “CTTACGACTACGTTACACGCGTTTATAGCGTCAACCCGAGTGAACA [4149-8_12]” has a Kd of 40 pM.
In the case of “TACGACTACGTTACACGCGTTTATAGCGTCAACCCGAGTGAACA [4149-8_13]”, the Kd is reported as 800 pM.
“TACGTTACACGCGTTTATAGCGTCAACCCGAGTGAACA [4149-8_16]” gave a Kd of 22000 pM.

Same assay, conditions: comparator
In the case of E10030 (Fovista), the Kd is reported as 47 pM.

From patent US20160177307
